Our source for the Kd, koff and kon values is paper PMC7693240.

The target of experiment [1] is H6-Smt3-Int^C(N125A)-CysTag(Alexa647)-Trx-H6. Description: MST.
Experiment [2] deals with H6-Int^N(C1A)-mCherry.

Regarding MBP-Int^N(C1A)-H6 (domain or fragment), the Kd in experiment [1] amounted to 22.4 nM. This counts as double-digit nanomolar.

“SBP-Int^C(N125A)-eGFP (domain or fragment)”: in experiment [2], the Kd stood at 9.2 nM, the koff worked out at 0.00082 s⁻¹ and the kon amounted to 85000 M⁻¹ s⁻¹.
